Here are results for five molecules from article PMC12288466, “EzrA promotes Z-ring formation through interaction of its QNR motif with FtsA” (Journal of Bacteriology, 2025).

Assay [1] addresses FtsA of B. subtilis, bacterial two-hybrid fusion (UniProt P28264). The experiment in a line: bacterial two-hybrid, β-galactosidase activity. The note with it: cultured at 30°C for 16 h; parent: est. 270; read off a plot.
The target of assay [2] is FtsA of E. faecalis, bacterial two-hybrid fusion (UniProt O07111). The experiment in a line: bacterial two-hybrid, β-galactosidase activity. Particulars: cultured at 30°C for 16 h; parent: est. 42; read off a plot.
FtsA of E. faecalis, bacterial two-hybrid fusion, sequence (O07111 whole entry, the tested form may be a part): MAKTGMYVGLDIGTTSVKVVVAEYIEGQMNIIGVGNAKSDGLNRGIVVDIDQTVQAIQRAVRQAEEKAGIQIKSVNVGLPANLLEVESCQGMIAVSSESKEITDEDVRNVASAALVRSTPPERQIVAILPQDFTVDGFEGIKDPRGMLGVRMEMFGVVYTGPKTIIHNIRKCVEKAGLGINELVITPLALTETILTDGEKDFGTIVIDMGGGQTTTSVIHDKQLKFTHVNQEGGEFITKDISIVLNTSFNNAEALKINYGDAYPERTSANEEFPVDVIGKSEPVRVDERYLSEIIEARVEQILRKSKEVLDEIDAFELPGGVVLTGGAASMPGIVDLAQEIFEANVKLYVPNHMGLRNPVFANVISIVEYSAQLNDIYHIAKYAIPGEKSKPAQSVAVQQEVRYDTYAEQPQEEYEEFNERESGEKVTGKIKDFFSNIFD
The target in assay [3] is FtsA of S. pneumoniae, bacterial two-hybrid fusion (UniProt A0A0H2ZPT5). The experiment in a line: bacterial two-hybrid, β-galactosidase activity. The note with it: cultured at 30°C for 16 h; parent: est. 110; read off a plot.
FtsA of S. pneumoniae, bacterial two-hybrid fusion, sequence (A0A0H2ZPT5 whole entry, the tested form may be a part): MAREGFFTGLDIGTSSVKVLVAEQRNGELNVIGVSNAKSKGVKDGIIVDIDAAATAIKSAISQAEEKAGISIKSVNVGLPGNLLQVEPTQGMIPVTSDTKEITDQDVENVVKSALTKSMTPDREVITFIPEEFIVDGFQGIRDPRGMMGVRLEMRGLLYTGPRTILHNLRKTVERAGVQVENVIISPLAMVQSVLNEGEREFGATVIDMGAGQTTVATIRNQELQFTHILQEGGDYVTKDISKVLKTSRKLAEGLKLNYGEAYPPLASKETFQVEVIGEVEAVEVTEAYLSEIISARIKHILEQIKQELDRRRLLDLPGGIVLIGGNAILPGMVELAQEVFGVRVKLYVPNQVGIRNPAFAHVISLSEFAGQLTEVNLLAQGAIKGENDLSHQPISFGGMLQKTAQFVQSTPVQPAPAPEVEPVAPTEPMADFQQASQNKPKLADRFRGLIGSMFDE
For assay [4], the target named is FtsA of S. suis, bacterial two-hybrid fusion (UniProt A0A0H3MTL7). The experiment in a line: bacterial two-hybrid, β-galactosidase activity. The note with it: cultured at 30°C for 16 h; parent: est. 300; read off a plot.
Assay [5] concerns the target T1, his-tagged FtsA protein (Streptococcus suis, UniProt A0A0H3MTL7 1-459).
T1 chain: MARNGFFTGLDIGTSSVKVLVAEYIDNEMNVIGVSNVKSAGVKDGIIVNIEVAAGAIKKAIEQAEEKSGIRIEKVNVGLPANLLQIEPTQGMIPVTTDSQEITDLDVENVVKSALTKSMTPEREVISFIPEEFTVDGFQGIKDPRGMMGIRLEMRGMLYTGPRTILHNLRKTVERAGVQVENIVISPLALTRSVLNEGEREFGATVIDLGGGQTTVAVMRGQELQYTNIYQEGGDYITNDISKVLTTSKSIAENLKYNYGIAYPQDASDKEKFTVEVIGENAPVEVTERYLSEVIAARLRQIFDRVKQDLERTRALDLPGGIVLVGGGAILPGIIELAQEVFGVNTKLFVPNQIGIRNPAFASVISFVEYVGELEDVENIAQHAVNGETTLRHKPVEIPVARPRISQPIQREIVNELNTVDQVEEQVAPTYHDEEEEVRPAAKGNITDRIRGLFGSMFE
The experiment in a line: SPR; equilibrium (steady-state) fit. (In general: Surface plasmon resonance follows binding to a sensor surface in real time, without labels.)

In assay [6] the target is T1, his-tagged FtsA protein. As to the kind of experiment: SPR; kinetic fit.
Assay [7] deals with T2, his-tagged FtsA protein (Streptococcus suis, UniProt A0A0H3MTL7 1-459).
T2 construct: FtsA of Streptococcus suis, locus SSU05_0480; It was purified 'in the same way but without the SUMO cleavage step'; source: E. coli BL21 (DE3), pET28a, purified (Ni-NTA)
T2 sequence (looked up): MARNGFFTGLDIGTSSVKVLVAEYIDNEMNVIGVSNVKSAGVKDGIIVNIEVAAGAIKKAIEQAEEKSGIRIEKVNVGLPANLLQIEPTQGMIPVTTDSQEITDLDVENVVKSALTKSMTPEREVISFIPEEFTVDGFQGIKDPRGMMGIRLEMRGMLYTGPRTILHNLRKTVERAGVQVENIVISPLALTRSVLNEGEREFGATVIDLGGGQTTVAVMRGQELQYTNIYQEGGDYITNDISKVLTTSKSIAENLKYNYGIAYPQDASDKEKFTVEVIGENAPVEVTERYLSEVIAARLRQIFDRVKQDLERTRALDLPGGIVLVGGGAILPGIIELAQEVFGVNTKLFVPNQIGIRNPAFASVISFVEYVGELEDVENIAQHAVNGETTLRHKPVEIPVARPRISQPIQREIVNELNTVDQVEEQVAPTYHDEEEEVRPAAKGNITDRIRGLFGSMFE
As to the kind of experiment: SPR; Biacore T200; FtsA covalently immobilised on a CM5 chip (700 RU); EzrA_(cyto) or its variant injected at 200 to 3.125 µM in twofold dilutions, 30 µL/min, 25°C; equilibrium response fitted to a 1:1 binding model. Particulars: both partners purified.

Some results are limits rather than exact numbers.

FtsA of B. subtilis, bacterial two-hybrid fusion, sequence (P28264 whole entry, the tested form may be a part): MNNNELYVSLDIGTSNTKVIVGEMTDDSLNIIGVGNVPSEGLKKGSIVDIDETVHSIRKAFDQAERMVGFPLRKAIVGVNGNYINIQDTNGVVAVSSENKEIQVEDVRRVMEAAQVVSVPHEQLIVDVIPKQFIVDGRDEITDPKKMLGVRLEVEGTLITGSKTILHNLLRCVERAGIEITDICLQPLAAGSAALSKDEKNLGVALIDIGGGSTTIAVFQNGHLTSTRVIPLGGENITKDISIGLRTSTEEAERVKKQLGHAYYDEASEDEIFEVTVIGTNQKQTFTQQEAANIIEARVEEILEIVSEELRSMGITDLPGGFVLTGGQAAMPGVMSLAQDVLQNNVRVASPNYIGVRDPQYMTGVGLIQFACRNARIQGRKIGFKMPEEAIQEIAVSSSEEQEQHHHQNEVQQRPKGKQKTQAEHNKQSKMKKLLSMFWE

With “EzrA of B. subtilis, bacterial two-hybrid fusion (from UniProt O34894) QND”, the response in assay [1] stood at 38 rel.U.
With “EzrA of Enterococcus faecalis, bacterial two-hybrid fusion (from UniProt Q838R5) QND”, in assay [2], the response turned out to be 25 rel.U.
Consider “EzrA of S. pneumoniae, bacterial two-hybrid fusion R515D”, for which the response in assay [3] came out at 21 rel.U.
Take “EzrA of S. suis, bacterial two-hybrid fusion R514D”: the response in assay [4] was 50 rel.U.

B1: cytoplasmic region of EzrA protein of S. suis (domain or fragment, Streptococcus suis, UniProt A4VWI6 27-574, looked up)
chain: RKRNDNLLVALEERKEELFNLPVNEEVETVKALHLIGQSQVSFREWNQKWVDLSLNSFADIENHIFEAEGYNNAFRFVSAKNAIDSIDSQIDLIEEDIASIRQGLMELKEQEEKNSGRVKHALNLFDSLQEAVRENPDSYGETLSELEKQLKNIEVEFSEFVMLNSSGDPIEASEILDKTEEHMIALNQIMDRIPSLIERVTKDFPEQLEDLESGYRKLVEQNYLFTEANIESQFQNIRVSIRENTALIVSFDLDAAEAENEGIQAKIDHLYKVFNREIEANKEAVKISKNLPKFLEHVVQNTQLLDEESQRLNATYLLADSKLSRINQLKARLESIEIVVTESVEDIENPQVAYSILEERLDHSLASLKEIEEEQLVLADYLKSQELSENTARKKATLYINKLHTLKRYMEKRNLPGIPAEFLTNFFRTSDHVEALIAELDYKRINIEVVNRLLENATYDMNQLEELAYLIVQNATLTEQLLQYSNRYRSFDESVQKAFNRSLSIFEKDFDYQAAFEEISFALETVEPGVTERFVRSYEKTREAIRY
notes: EzrA of Streptococcus suis, locus SSU05_1509, cytoplasmic region; also called EzrA_(cyto); source: E. coli BL21 (DE3), pET28a, purified (Ni-NTA, SUMO protease cleavage); not shown: His-SUMO, C-terminal, cleaved
In the case of B1, the Kd (usually the free concentration of one partner at which half of the binding sites on the other are occupied at equilibrium, for simple one-to-one binding) came to 37.2 nM with his-tagged FtsA protein [5] and 1.91 nM with his-tagged FtsA protein [6]. For the same molecule, in the assay with his-tagged FtsA protein [7], the “fold binding affinity against EzrA^R514D” value is ≥ 10 fold.
